# Experiment: yeast display, Sf9 membrane polyspecificity reagent, FACS + sequencing; frameworks hold sequencing errors
# Outline: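 A nanobody's polyreactivity label depends on the gate it was sorted from. Yeast display cells were stained with 10% biotinylated, detergent-solubilized Sf9 membrane reagent for 1 hour at 4 °C, enriched on streptavidin microbeads and sorted by FACS. The low and high (top ~1%) gates were set on anti-HA fluorescence for expression and streptavidin fluorescence for reagent binding.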
row,Sequence,polyreactivity (PSR sort gate)
1,QVQLVESGGGLVQAGGSLRLSCAASGIIFSYNAMGWYRQAPGKERELVAAINSSGGSTNYADSVKGRFTISRDNAKNTVYLQMNSLKPEDTAVYYCAARDATYYGVWRYYGIDDYWGQGTQVTVSS,low polyreactivity
2,QVQLVESGGGLVQAGGSLRISCAASGGIFNYYTMGWYRQAPGKERELVAAINSSGGNTHYADSVKGRFTISRDNAKNTVYLQMNSLKPEDTAVYYCNADARSVWFYRVDYWGQGTQVTVSS,low polyreactivity
3,QVQLGESGGRLVQAGGSLRLSCAASGSTFPTNAMGWSRQGPGKERELVAAITSTGSTYADSVKGRYTISRDNVKNTVYLQMNSVKPEDTAVYYCAADTQWTTPYDYWGQGTQVTVSS,low polyreactivity
4,QVQLVESGGGLVQAGGSLRLSCAASGFTLFGYAMGWYRPAPGKERELVAAITSGDGRTYYADSVKGRFTISRDNAKNTVYLQMNSLKPEDTAVYYCAATRYSSYYYVRHDHWGQGTQVTVSS,low polyreactivity
5,QVQLGESGVGLVQAGGSHRLSCAASGSTSPINAMGWYRQAPGKERELVAVISSSGGRTYYADSVKGRFTISRDNAKNTVYLQMNSLKPEDTAVYYCANRFSRRQPDYDYWGQGTQVTVSS,high polyreactivity
6,QDQHVESAGGLVQAAGSLRLSCAASGSTFWYYVMGWSRQAPGQVRELVAAISTRGDSTYYADSVKGRFTISRDNANNSVYLQMYSLKPEDTAVYYCAKSRQSSGRVRFDYWGQGTQVTVSS,low polyreactivity
7,QVQLVESGGGLVQAGGSLRLICAASGSIFSLYAMGWYRQAPGKQREFVASISRSGGITYYADSVKGRFTISRDNEKNTVYLQMISLKPEDTAVYYCAAVGWVSYRRYDYWGQGTQVTVSS,high polyreactivity
8,HAQLQESGVGLVQAGGSLRRSCAASGSIFRFSGMGWYRRAPGKERELVASIGFGSITYYADRVKGRFTISRDNANNTEYLQMNSLKPEDTAVYYCAVQVQDESWLDYWGQGTQVTVSC,low polyreactivity
9,QVKLVESGGGLVQAGGSLRLSCAASGTFYYNTMGWYIQAPGTERELVAAITSGGRTYADSVKGRFTISRDNAKNTVYLQMNSLKPEDTAVYYCAASWYFFSPGGTFGYWGQGTQVTVSS,low polyreactivity
10,QVQLVESGGGLVQAGGSLRLSCAASGLIFTYYAMGWYRQAPGKERELVAAISGRGGSTYYADSVKGRFTISRDNAKNTVYLQMNSLKPEDTAVYYCAAVRWAGYVSDYGYWGQGTQVTVSS,high polyreactivity
11,QVQLEESGGGLVQAGGSHRLSCAASGQIFRHYAMGWYRQAPGKEREFVAAITGSGGNTYYADSLKGRFTISRDNAKNTVYLQMNSLKPEDTAVYYCAVRAYPSYPRGVYAYYYWGQGTQVTVSS,high polyreactivity
12,QVQHVESGGGLVQAGGSLRLSCAASGFIFSTNAMGRYRQAPGKERELVATIRSGGSTNYADSVKGRFTISRDNAKYTVYLQMNSLKPEDTAVYYCNVDDTSWTTSGGRFGQVEYDYWGQGTQVTVSS,low polyreactivity
13,QVQHVESGGGLVQAGGSLRLSCAASGGIFVANAMGWYRQAPGKERELVAAISRSGGSTYYADSVKGRFTISRDNAKNTVYLQMNSLKPEDTAVYYCAAKSRRQYTVGLTSDYWGQGTQVTVSS,low polyreactivity
14,QVQLVESGGGLVQAGGSLRLSCAASGRIFASYAMGWYRQAPGKERELVAAISWSGGSTNYADSVKGRFTISRDNAKNTVYLQMNRLKPEDTAVYYCAKKKRRGYGYDYWGQGTQVTVSS,high polyreactivity
15,QVQLVESGGGLVQAGGSLRLSSAASGFTFKGNALGWYRQAPGKERELVATITQSAGSTYYADSVKGRFTISRDNAKNTVYLQMNSLKPEDTAVYYCNADPITLYYYSWYNYWGQGTQGTVSS,low polyreactivity
16,QVQLVESGGGLVQAGGSLRLSCAASGIFGYNARGWYRQAPGKERELVAAITSSGTSTYYADSVKGRFTISRDNAKNTVYLQMNSLKPEDTAVYYCAALHSGTWTGYGYWGQGTQVTVSS,low polyreactivity
17,QVQLVESGGGLVQAGGSLRLSCAASGRTFVPYDMGWYRQAPGKERELVAAISSGDSTNYTDSVKGRFTISRDNAKNTVYLQMNSLKPEDTAVYYCAADLTYTMDHWGQGTQVTVSS,low polyreactivity
18,QVQLVESGGGLFQAGGSLRLSCAPSGHIFFYYTMGWYRPAPGKERELVAGITIGGSTNYADSVKGRFTISRDNAKNTVYLQMNSLKPEDTAVYYCNVVKYVYIYSYWESYYWGQGTQVTVSS,low polyreactivity
19,QVQLVESGGGLVHAGGSLRLSCAASGRIFKSYAMGWYRQAPGKEREFVAAISTRSSSTYYADSVKGRFTISRDNAKNTVYLQMNSLKPEDTAVYYCAKVYQTLPYYYPGDYWGQGTQVNVSS,low polyreactivity
20,QVQLVESGGCLVQAGGSLRLSCAASGIIFYYYAMGWSRQAPGKEREFVAGIRWSSGSTYYADSVKGRFTISRDNAKNTVYLQMNSLKPEDTAVYYCAAAYLSWYGGYYYWGQGSQVTVSS,low polyreactivity
21,QVHLVESGGGLVQAGGSLRISCAASGRIFRRYAMGWYRQAPGKERELVAAITRSGGSTYYADSVKGRFTISRDNAKNTVYLQMNSLKPEDTAVYYCNAPSSLGTDYDYWGQGTQVTVSS,high polyreactivity

row,Sequence,polyreactivity (PSR sort gate)
1,QVQLGESGGGLVQAGGSLRLRCAASGYILWNAMGWYRQAPGKERELVAAIRFRGGSTSYADSVKGRFTISRDNAKNTVYLQMNSLKPEDTAVYYCNARWWVIRPYQRHDYWGQGTQVTVSS,low polyreactivity
2,QVQLQESGCGLVQAGGSLRLSCAASGDIIEADDMGWYRQAPGKERELVASITDGGSTNCADSMKGRSTICRDNAKITVYLQMNSLKLEDTAVYYCAAIAYPDVPTYFDYDSDYFYWGQGTLVTVSS,high polyreactivity
3,QVQLVESGGGLVQAGGSLRLSCAASGLIFPRYAMGWYRQAPGKERELVAAISSGGSTNYADSVKGRFTISRDNAKNTVYLQMNSLKPEDTAVYYCAASSYYYRFSRWPYYHRYYWGQGTQVTVSS,low polyreactivity
4,QVQLVESGGGLVQAGGSLRLSCAASGRTFHYYAMVWYRQAPWKERELVAGITAGGSTYYADSVKGRFTISRDNAKNTVYLLMNSLKPEDNSGYYCAADRSYYGYGYWGKGTQVTVSS,low polyreactivity
5,QVQLVESGGGLVQAGGSLRLSCAASGSIFNKYAMGWYRQAPGKEREFVAAITQGGGRTYYADSVKGRFTISRDNAKNTVYLQMNSLKPEDTAVYYCNAAVYSRARGSYRRRYDYWGQGTQVTVSS,high polyreactivity
6,QVQLVESGGGLVQSGGSLRLSCAASGGTFVPYAMGWDIQAPGKERELVARISKRGGTTYYADSVKGRFTISRDTAKITVYLQMNSLKPEDTAVSSCAAVLPARGYYWGQGTQVTVSS,high polyreactivity
7,RVQLGESGGGLVQAGGSLRLSCAASGRTFVRYAMGWYRQAPGKERELVAAISYRGASTFYADSVKGRFTISRDNAKNTVYLQMNSLNPEDTAVYSCATDPRIRYQGNPYDYWGQGTQVTVSS,high polyreactivity
8,QVQLVDSGGGLVQAGGRLRLSCAASGLIFSYYARGRYRQGPRKERELVPAISSGGRTSYADSVKGRFTISRDNEKNTVYLKMNSVKPEASAVYYCAAYPVYNRPGDYWGQGTQVTVSS,high polyreactivity
9,QVQLVESGGALVQARGSLRLSCAASGRTFVWYAMGWYRQAPGKERELVAAITLSGGSTYYADSVKGRFTISRDNAKNTVYLQMTSLKPEDTAVYYCAADGTYRPEDYDYWGQGTKVTVSS,low polyreactivity
10,HVQLVESGGGLVQAGGSLRLSCAASARIFVTYAMGWYREAPGKETELVAAISSRGGRTNYADSVKGRFTISRDNAQNTVYLQMNSLKPEYTAVYYFAARYWYIYNYDYWGQGTQVTVSS,high polyreactivity
11,QVQLVESGGGLVQAGGSLRLSCAASGSTFDDYALGWYRQAPGKERELVAAISFSSGSTYYADSVKGRFTISRDNAKNTVYLQMNSLKPEDTAVYYCAAEKYGWTYYFSWQEDYWGQGTQVTVSS,high polyreactivity
12,QVQLVESGGGLVQAGGSLRLSCAASGSIFTDNAMGWYKQAPGKERELVAVISSGGRTYYADSVKGRFTISRDNAKNTVYLQMNSLKPEDTAVYYCKGQKRYPFSGIEDYWGQGTQVNVSS,high polyreactivity
13,QVQLVESGGGLVQAGGSLRLSCAASGSSFRVYAMGWYRQAPGKERELVAAISGSGGSTYYADSVKGRFTISRDNAKNTVYLQMNSLKPVDTAVYYCAARSWYTEYYWGQCTQVTVSS,high polyreactivity
14,QVQLVESGGGLVQAGGSLRLSCAASGSIFPVYAMGWYRQSPGKERELVADITYTTGSTYYADSVKGRFTISRDNAKNTVYLQMNSLKPEDSAVYYCAKDFGFQSDSWGQGTQVTVSS,low polyreactivity
15,QVHLGESGGGLVQAGGSLRLSCAASGSTFDRNVIGGYRQAPGKERELVAAISRVSSTNYADSVKGRFTISRDNAKNTVYLQMNSLKPEDTAVYYCAADRAGSIMNYWGQGTQVTVSS,low polyreactivity
16,QVQLVESGGGLVQAGGSLRLSCAASGLIFLYYAMGWYRQAPGKERELVAAISRRGGSTYYADSVKGRFTISRDNAKNTVYLQMNSLKPEDTAVDYCAANYESYPRGIWTYYYWGQGTQVTVSS,high polyreactivity
17,QVQLVESGGGLVQAGGSLRLSCAASGIIFYYNGMGWYRQAPGKERELVAAISGDGSTNYADSVKGRFTISRDNAKNTVYLQMNSLKPEDTAVYYCNADDIFRPRDDLYDYWGQGTQVTVSS,low polyreactivity
18,QVQLVESGGGLVHAGGSLRLSCAASGITFKWNDMGWYRQAPGKEREFVAAITGSTGSTFYADSVKGRFTISRDNAKNTVYLQMNSLKPEDTAVYYCAAGPWFYYWGQGTQVTVSS,low polyreactivity
19,QVQLVESGGGLVQAGGSLRLSCAASGRIFGGYAMGWYRQAPGKERELVAVITDGGSTNYADSVKGRFTISRDNAKNTVYLQMNSLKPEDTAVYYCAADDRIYPRGYDKMDYWGQGTQVTVSS,low polyreactivity
20,QVQLVESGGGLVQAGGSLRLSCAASGNTFVSNARGWYSQAPGKEREWVAAIDSGGSTNYADSVKGRFTISRDNAKNTDYLQMNSLKPEDTAVYYCNRTSVYYYYWGQGTQVTVSS,low polyreactivity

# Reference: the nanobody polyreactivity screen of Harvey et al. (2022)
